{"source": "paper PMC10629159", "proteins": {"B1": {"name": "Epithelial membrane protein 3 (EMP3): N47A (protein)", "parent chain": "MSLLLLVVSALHILILILLFVATLDKSWWTLPGKESLNLWYDCTWNNDTKTWACSNVSENGWLKAVQVLMVLSLILCCLSFILFMFQLYTMRRGGLFYATGLCQLCTSVAVFTGALIYAIHAEEILEKHPRGGSFGYCFALAWVAFPLALVSGIIYIHLRKRE"}}, "test": "BioID2 proximity profile; Myc immunofluorescence", "details": "glycan lost; control: EMP3 WT bait"}
{"protein": "B1", "values": [{"measurement": "localisation_or_trafficking", "result": "no change"}]}
